Laboratory results from patent US8354392B2, “Drug-introduced photo-crosslinked hyaluronic acid derived gel” (priority 2005, dated 2013).

How the values were obtained:
Assay type in all cases: physicochemical
[1] = Extrusion feeling through a 23 gauge injection needle; design: key: ◯: easily extruded; X: difficulty extruded; details: whole gel (2 ml to 5 ml) in 5 ml syringe, 23 gauge needle, limit pressure 0.5 to 5 kg/cm^2
Method: Evaluation was carried out in accordance with the following criteria. ◯: easily extruded X: difficulty extruded Incidentally, with regard to the criteria for the extrusion feeling, within the range of a limit pressure (0.5 to 5 kg/cm^2), when a whole gel (2 ml to 5 ml) filled in a syringe having a volume of 5 ml was extruded through an injection needle of 23 gauge, it was evaluated to as easily extruded (◯). Also, according to the same operation, when not a whole gel filled in a syringe was extruded, for example, by clogging due to insoluble materials, it was evaluated to as difficulty extruded (X).

[2] = Extrusion state from the tip of a 23 G injection needle (characteristics); design: key: ◯: formed a mass or a lump having a shape-maintaining property at the tip of the injection needle; X: did not form a mass; details: slowly extruded from an injection needle with 23 G downward
Method: (§1) Evaluation was carried out in accordance with the following criteria.

[3] = Viscosity measured with a rotation viscometer; details: gel from 1% solution in phosphate buffered physiological saline, photoirradiated, heat treatment; rotation viscometer at 20° C., standard cone (1°34′, 1 rpm)
Method: A 1% phosphate buffered physiological saline solution of the obtained naproxen-introduced photo-reactive HA (photo-reactive group: cinnamic acid) was prepared, and filled in a 5 mL glass syringe.
as §1

Substance	Extrusion feeling [1]	Extruded state [2]	viscosity [3]
felbinac-introduced photo-crosslinked sodium hyaluronate gel [Example 5]	◯	X	7.32 Pa·s
ibuprofen-introduced photo-crosslinked HA gel [Example 3]	◯	◯	13.1 Pa·s
etodolac-introduced photo-crosslinked HA gel [Example 7]	◯	◯	12.7 Pa·s
flurbiprofen-introduced photo-crosslinked HA gel [Example 4]	◯	◯	21.2 Pa·s
actarit-introduced photo-crosslinked HA gel [Example 8]	◯	◯	10.8 Pa·s
